Experimental data taken from PMC4428439.

Target: IraP with a C-terminal His10-tag, purified (E. coli) (UniProt P0AAN9)
Sequence (P0AAN9 whole entry): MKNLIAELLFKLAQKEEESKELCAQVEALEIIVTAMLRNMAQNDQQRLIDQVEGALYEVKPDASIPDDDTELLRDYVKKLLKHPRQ

- rate of σ^S turnover in the presence of IraP and AcP with a 5-fold excess of RssBN (Figure S4): 2 fold
Substance: RssBN, N-terminal domain of RssB (residues 1-129), untagged, purified (from UniProt P0AEV1 1-129) (domain or fragment)
